Results on 1 substance are retold here after patent US20200176073A1.

The assay addresses CXCR4 cognate ligand SDF1a (or CCL12) (UniProt P48061). In words: ELISA, water-soluble CXCR4 with CCL12 (SDF1a), assay concentrations 50 nM to 10 uM. (In an ELISA, binding on a coated surface is turned into a signal by an enzyme label.)

Chain of CXCR4 cognate ligand SDF1a (or CCL12) (P48061 22-89 limits assumed): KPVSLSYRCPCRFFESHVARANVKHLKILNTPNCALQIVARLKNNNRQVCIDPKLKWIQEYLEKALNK

As for “water-soluble CXCR4-QTY protein, produced in E. coli BL21 (DE3) and purified with 1D4 rho-tag monoclonal antibody (receptor)”, the Kd (usually the constant that tells how readily two partners part at equilibrium) is 80 nM.
